Stoichiometry N data for 1 substance are collected here from publication doi:10.1101/2021.06.01.446691.

The test concerns the target VirB4-like TraB ATPase of the pKM101-encoded type IV secretion system (plasmid pKM101 (carried in E. coli)). The experiment in a line: cryo-EM structure.

As for “VirB4-like TraB ATPase of the pKM101-encoded type IV secretion system (enzyme)”, the stoichiometry N (usually the number of molecules, sites or subunits per partner or assembly) came out at 12.
